Measured values published in patent publication US6858578.
“And” between values parts separate entries of the source, which are not always exact repeats. Identical values can stand only once.

Target: LDLR/TF chimeric protein with amino acids 1-374 of mature human LDLR fused to amino acids 20-698 of human transferrin (encoded by pEFBOS/LDLrTF1.S) (human)
Experiment: microplate assay: chimeric protein (13.3 nM) held by coated HTF-14, LDL 0.5-50 µg/ml, detected with sheep anti-human LDL; the signal at 50 µg/ml is taken as the maximum

Chain of LDLR/TF chimeric protein with amino acids 1-374 of mature human LDLR fused to amino acids 20-698 of human transferrin (encoded by pEFBOS/LDLrTF1.S) (human) (chain, as listed by the source mutant): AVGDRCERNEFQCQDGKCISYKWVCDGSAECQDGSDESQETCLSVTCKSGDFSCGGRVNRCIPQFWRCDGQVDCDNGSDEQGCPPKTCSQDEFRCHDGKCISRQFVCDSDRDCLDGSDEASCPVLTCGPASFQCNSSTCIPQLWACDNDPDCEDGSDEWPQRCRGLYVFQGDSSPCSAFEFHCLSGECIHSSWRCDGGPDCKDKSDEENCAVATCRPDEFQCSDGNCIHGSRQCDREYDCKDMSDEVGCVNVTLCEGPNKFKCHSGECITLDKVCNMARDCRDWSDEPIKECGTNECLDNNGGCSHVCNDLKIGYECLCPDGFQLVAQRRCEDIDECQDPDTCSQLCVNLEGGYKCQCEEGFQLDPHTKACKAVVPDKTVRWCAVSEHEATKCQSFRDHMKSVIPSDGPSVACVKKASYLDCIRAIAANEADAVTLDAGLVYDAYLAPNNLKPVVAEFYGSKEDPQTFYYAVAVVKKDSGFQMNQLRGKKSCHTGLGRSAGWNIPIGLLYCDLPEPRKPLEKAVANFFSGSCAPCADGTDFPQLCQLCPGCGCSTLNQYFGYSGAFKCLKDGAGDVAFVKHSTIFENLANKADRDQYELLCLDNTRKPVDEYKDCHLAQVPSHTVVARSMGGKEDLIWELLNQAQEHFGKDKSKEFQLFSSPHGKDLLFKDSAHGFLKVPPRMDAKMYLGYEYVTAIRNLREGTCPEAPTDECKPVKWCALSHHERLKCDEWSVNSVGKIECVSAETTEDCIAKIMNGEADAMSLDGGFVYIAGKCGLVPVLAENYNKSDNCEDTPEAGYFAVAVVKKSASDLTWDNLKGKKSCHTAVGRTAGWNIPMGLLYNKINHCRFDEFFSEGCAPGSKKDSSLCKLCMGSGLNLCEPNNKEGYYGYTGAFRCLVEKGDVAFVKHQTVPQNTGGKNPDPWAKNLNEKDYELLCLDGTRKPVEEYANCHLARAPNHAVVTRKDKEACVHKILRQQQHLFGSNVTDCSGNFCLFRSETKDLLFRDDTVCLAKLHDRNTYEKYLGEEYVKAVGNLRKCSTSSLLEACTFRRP

EC50: 1.6 µg/mL and 3.1 nM
Substance: human LDL (low density lipoprotein particle carrying one molecule of apolipoprotein B-100), P04114 28-4563
